Reference: paper PMC2112731

Molecular target: F-actin in a glycerinated muscle fiber (rabbit (endogenous in psoas muscle fiber)) (UniProt P68135)
Experiment: fluorescence intensity of a labeled muscle fiber

phalloidin-(fluorescein isothiocyanate) FITC complex (peptide)
stoichiometry N (mol of the toxin per mol of actin): 1
